{"source": "paper PMC9499402", "about": "“Crystal Structure of an Archaeal Tyrosyl-tRNA Synthetase Bound to Photocaged L-Tyrosine and Its Potential Application to Time-Resolved X-ray Crystallography” (International Journal of Molecular Sciences, 2022)", "proteins": {"B1": {"name": "oNBTyrRS, O-(2-nitrobenzyl)-L-tyrosine-specific variant of Methanocaldococcus jannaschii tyrosyl-tRNA synthetase (Y32G, L65G, F108E, D158S, L162E, D286R) (enzyme, UniProt Q57834 1-306, looked up)", "chain": "MDEFEMIKRNTSEIISEEELREVLKKDEKSAGIGFEPSGKIHLGHYLQIKKMIDLQNAGFDIIIGLADLHAYLNQKGELDEIRKIGDYNKKVFEAMGLKAKYVYGSEEQLDKDYTLNVYRLALKTTLKRARRSMELIAREDENPKVAEVIYPIMQVNSIHYEGVDVAVGGMEQRKIHMLARELLPKKVVCIHNPVLTGLDGEGKMSSSKGNFIAVDDSPEEIRAKIKKAYCPAGVVEGNPIMEIAKYFLEYPLTIKRPEKFGGDLTVNSYEELESLFKNKELHPMRLKNAVAEELIKILEPIRKRL", "notes": "Methanocaldococcus jannaschii tyrosyl-tRNA synthetase (MjTyrRS), UniProt Q57834, with six substitutions; all 306 amino acid residues were modelled in the crystal structure; Residues of the TEV site may remain after cleavage; also called oNBTyr-tRNA synthetase; M. jannaschii oNBTyrRS; source: E. coli Rosetta2 (DE3), purified (HisTrap, TEV cleavage, HisTrap flow-through, desalting, HiTrap Q); not …"}}, "biological_target": "the molecule itself", "assay": "crystal structure; oNBTyrRS (10 mg/mL) co-crystallised with oNBTyr (1.4 mg/mL), sitting-drop vapor diffusion at 20 °C; reservoir 20% PEG300, 3% PEG8000, 10% glycerol, 100 mM Tris-HCl pH 8.0; dimer in the asymmetric unit; 2.79 Å"}
{"protein": "B1", "values": [{"measurement": "stoichiometry N", "value": 2}]}
